The source of these data is patent US20140186344A1 (TRUSTEES OF BOSTON UNIVERSITY, published 2014).

No end group written: not given here. *: point of attachment. 125I = [125I]*

The target in experiment [1] is T1, Dahl S Dear S44/M74 variant (rat Dual Endothelin-1/Angiotensin II Receptor) (rat (Dahl S/JRHsd), UniProt D3ZGZ6 1-127).
T1 construct: It was assayed as membranes of transiently transfected Cos1 cells, and as rat kidney membranes on blots; also called Dahl S receptor; Cos1-S
T1 chain: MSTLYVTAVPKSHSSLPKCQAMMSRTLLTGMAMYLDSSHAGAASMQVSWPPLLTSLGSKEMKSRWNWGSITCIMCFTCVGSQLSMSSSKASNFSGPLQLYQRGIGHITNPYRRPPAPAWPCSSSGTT
Kind of experiment: saturation radioligand binding, Cos1 membranes; comparison of KH. The protocol: (§1) Binding of [¹²⁵I]Tyr⁴-angiotensin II and [¹²⁵I]Tyr¹³-endothelin-1 to COS-1 membranes was performed by a rapid filtration method (32, 50). Briefly, [¹²⁵I]Tyr⁴-angiotensin II (0.25˜6.5 nM) or [¹²⁵I]Tyr¹³-endothelin-1 (0.045˜1.46 nM) was incubated with membranes (100 μg) for 20 min at 37° C. in 100 μl buffer A (5 mM MgCl₂, 0.2 mM EDTA, 10 mg/ml BSA, 10 mM Hepes, pH7.4). Binding reactions were terminated by the addition of 1 ml ice-cold buffer A and immediately filtered through a Whatman GF/C filter (presoaked overnight at 4° C. in 10 mg/ml BSA) and subsequently washed with 15 ml ice-cold buffer A. Specific binding was determined as the difference between the total radioactivity bound to membranes and the radioactivity bound to blanks containing 1 μM AngII or 1 μM ET-1. The dissociation constant (Kd) and maximum ligand-binding sites (Bₘₐₓ) were determined using Hill plot analysis (55). Hill coefficient values (h) were calculated from the relationship ln [B/(Bₘₐₓ−B)]=h ln [free Radioligand]−ln Kd. […] The data were best fit by two affinity states determined by Scatchard plot analysis; KH and KL designate the Kd for high- and low-affinity states of the receptor, respectively (44). Most results are expressed as the mean±SE (standard error) from three to five independent experiments.

For the experiment “mouse Dear (Dual …)”, the target named is T2, mouse Dear (Dual Endothelin-1/Angiotensin II Receptor) (mouse, UniProt Q2QKR2 1-127).
T2 construct: Endogenous protein in mouse kidney membranes and embryos was used for the antibody work; also called mouse receptor polypeptide; mouse Dear polypeptide
T2 sequence: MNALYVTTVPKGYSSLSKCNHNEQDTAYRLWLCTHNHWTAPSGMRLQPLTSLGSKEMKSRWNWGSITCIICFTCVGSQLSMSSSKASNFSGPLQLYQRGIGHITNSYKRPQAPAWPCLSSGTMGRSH
Nature of the experiment: 125I-ET-1 binding to membranes of Cos-1 cells expressing mouse Dear.

For experiment [2], the target named is T1, Dahl S Dear S44/M74 variant (rat Dual …). Nature of the experiment: saturation radioligand binding, Cos1 membranes; KH, high affinity binding site; the column head says nM but paragraph 132 gives this value in pM. The protocol:
as §1

Experiment [3] concerns the target T3, Dahl R Dear S44P/M74T variant (rat Dual Endothelin-1/Angiotensin II Receptor) (rat (Dahl R/JRHsd), UniProt D3ZGZ6 1-127).
T3 construct: It was assayed as membranes of transfected Cos1 cells and as kidney membranes on blots; also called Dahl R receptor; Cos1-R
T3 chain: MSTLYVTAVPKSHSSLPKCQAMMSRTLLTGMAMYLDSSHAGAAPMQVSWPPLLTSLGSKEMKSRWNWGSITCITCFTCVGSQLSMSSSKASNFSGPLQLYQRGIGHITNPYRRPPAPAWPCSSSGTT
The experiment is described as above. How it is done:
as §1

Experiment [4] deals with T1, Dahl S Dear S44/M74 variant (rat Dual …). Nature of the experiment: saturation radioligand binding, Cos1 membranes; KL, low affinity binding site; the column head says nM, and the unit is doubtful. How it is done: as §1
The target of experiment [5] is T3, Dahl R Dear S44P/M74T variant (rat Dual …). The experiment is described as above. The protocol: as §1

B1: [125I]Tyr13-endothelin-1 (peptide, UniProt P05305 53-73, looked up)
peptide: CSCSSLMDKECVY(125I)FCHLDIIW
modifications: ends and bridges not checked
notes: mature; Radiolabelled ligand; also called ET-1
For B1, in experiment [1], the “fold increased affinity compared to the Dahl R Dear S44P/M74T variant” value is 3 fold. Also, the binding result in the experiment with mouse Dear (Dual …) is given as “binds”. Also, the Kd in experiment [2] came out at 0.00442 nM; in experiment [3], 0.012 nM; in experiment [4], 0.45 nM; in experiment [5], 0.836 nM.

A word on the Kd: it is the concentration at which binding is half-saturated. High values mean a looser complex, low ones a tighter complex.
